Laboratory results reported in IntAct's records for PubMed 19596235.

B1: Structure-specific endonuclease subunit SLX4 (Homo sapiens), Q8IY92 (parent)
chain: MKLSVNEAQLGFYLGSLSHLSACPGIDPRSSEDQPESLKTGQMMDESDEDFKELCASFFQRVKKHGIKEVSGERKTQKAASNGTQIRSKLKRTKQTATKTKTLQGPAEKKPPSGSQAPRTKKQRVTKWQASEPAHSVNGEGGVLASAPDPPVLRETAQNTQTGNQQEPSPNLSREKTRENVPNSDSQPPPSCLTTAVPSPSKPRTAQLVLQRMQQFKRADPERLRHASEECSLEAAREENVPKDPQEEMMAGNVYGLGPPAPESDAAVALTLQQEFARVGASAHDDSLEEKGLFFCQICQKNLSAMNVTRREQHVNRCLDEAEKTLRPSVPQIPECPICGKPFLTLKSRTSHLKQCAVKMEVGPQLLLQAVRLQTAQPEGSSSPPMFSFSDHSRGLKRRGPTSKKEPRKRRKVDEAPSEDLLVAMALSRSEMEPGAAVPALRLESAFSERIRPEAENKSRKKKPPVSPPLLLVQDSETTGRQIEDRVALLLSEEVELSSTPPLPASRILKEGWERAGQCPPPPERKQSFLWEGSALTGAWAMEDFYTARLVPPLVPQRPAQGLMQEPVPPLVPPEHSELSERRSPALHGTPTAGCGSRGPSPSASQREHQALQDLVDLAREGLSASPWPGSGGLAGSEGTAGLDVVPGGLPLTGFVVPSQDKHPDRGGRTLLSLGLLVADFGAMVNNPHLSDVQFQTDSGEVLYAHKFVLYARCPLLIQYVNNEGFSAVEDGVLTQRVLLGDVSTEAARTFLHYLYTADTGLPPGLSSELSSLAHRFGVSELVHLCEQVPIATDSEGKPWEEKEAENCESRAENFQELLRSMWADEEEEAETLLKSKDHEEDQENVNEAEMEEIYEFAATQRKLLQEERAAGAGEDADWLEGGSPVSGQLLAGVQVQKQWDKVEEMEPLEPGRDEAATTWEKMGQCALPPPQGQHSGARGAEAPEQEAPEEALGHSSCSSPSRDCQAERKEGSLPHSDDAGDYEQLFSSTQGEISEPSQITSEPEEQSGAVRERGLEVSHRLAPWQASPPHPCRFLLGPPQGGSPRGSHHTSGSSLSTPRSRGGTSQVGSPTLLSPAVPSKQKRDRSILTLSKEPGHQKGKERRSVLECRNKGVLMFPEKSPSIDLTQSNPDHSSSRSQKSSSKLNEEDEVILLLDSDEELELEQTKMKSISSDPLEEKKALEISPRSCELFSIIDVDADQEPSQSPPRSEAVLQQEDEGALPENRGSLGRRGAPWLFCDRESSPSEASTTDTSWLVPATPLASRSRDCSSQTQISSLRSGLAVQAVTQHTPRASVGNREGNEVAQKFSVIRPQTPPPQTPSSCLTPVSPGTSDGRRQGHRSPSRPHPGGHPHSSPLAPHPISGDRAHFSRRFLKHSPPGPSFLNQTPAGEVVEVGDSDDEQEVASHQANRSPPLDSDPPIPIDDCCWHMEPLSPIPIDHWNLERTGPLSTSSPSRRMNEAADSRDCRSPGLLDTTPIRGSCTTQRKLQEKSSGAGSLGNSRPSFLNSALWDVWDGEEQRPPETPPPAQMPSAGGAQKPEGLETPKGANRKKNLPPKVPITPMPQYSIMETPVLKKELDRFGVRPLPKRQMVLKLKEIFQYTHQTLDSDSEDESQSSQPLLQAPHCQTLASQTYKPSRAGVHAQQEATTGPGAHRPKGPAKTKGPRHQRKHHESITPPSRSPTKEAPPGLNDDAQIPASQESVATSVDGSDSSLSSQSSSSCEFGAAFESAGEEEGEGEVSASQAAVQAADTDEALRCYIRSKPALYQKVLLYQPFELRELQAELRQNGLRVSSRRLLDFLDTHCITFTTAATRREKLQGRRRQPRGKKKVERN

Variants of: B1
Details: with plk1_human PLK1, P53350
plk1_human PLK1, P53350, sequence (P53350 whole entry): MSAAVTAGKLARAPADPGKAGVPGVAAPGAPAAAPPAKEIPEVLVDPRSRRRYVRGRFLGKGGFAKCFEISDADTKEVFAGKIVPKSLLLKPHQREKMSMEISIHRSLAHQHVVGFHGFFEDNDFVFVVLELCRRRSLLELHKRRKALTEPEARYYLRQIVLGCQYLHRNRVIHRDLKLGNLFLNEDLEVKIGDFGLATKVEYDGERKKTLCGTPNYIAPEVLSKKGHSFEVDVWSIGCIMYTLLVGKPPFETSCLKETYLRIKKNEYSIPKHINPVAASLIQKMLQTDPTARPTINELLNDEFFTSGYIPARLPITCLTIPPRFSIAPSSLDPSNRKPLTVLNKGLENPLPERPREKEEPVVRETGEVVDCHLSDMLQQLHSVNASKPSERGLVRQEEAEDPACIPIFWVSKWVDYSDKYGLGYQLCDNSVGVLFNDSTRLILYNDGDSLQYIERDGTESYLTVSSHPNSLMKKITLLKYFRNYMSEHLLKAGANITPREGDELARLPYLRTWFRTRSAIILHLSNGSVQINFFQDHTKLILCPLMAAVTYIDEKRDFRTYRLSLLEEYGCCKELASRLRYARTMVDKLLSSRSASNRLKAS

| effect of a mutation on the interaction | Variant |
| --- | --- |
| decreasing interaction | S1453A |
